Measured values reported in US20180340159.

Molecular target: T1, propeptide of Rhizomucor miehei lipase (RmL)
T1 chain: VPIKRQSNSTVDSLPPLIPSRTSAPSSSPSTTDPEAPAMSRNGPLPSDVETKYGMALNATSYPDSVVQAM

B1: Rhizomucor miehei lipase (RmL) wild type mature protein (protein)
chain: SIDGGIRAATSQEINELTYYTTLSANSYCRTVIPGATWDCIHCDATEDLKIIKTWSTLIYDTNAMVARGDSEKTIYIVFRGSSSIRNWIADLTFVPVSYPPVSGTKVHKGFLDSYGEVQNELVATVLDQFKQYPSYKVAVTGHSLGGATALLCALDLYQREEGLSSSNLFLYTQGQPRVGDPAFANYVVSTGIPYRRTVNERDIVPHLPPAAFGFLHAGEEYWITDNSPETVQVCTSDLETSDCSNSIVPFTSVLDHLSYFGINTGLCT
For B1, the lipase hydrolytic activity (4-MU oleate), average slope; incubated with 5 µM TCEP was 22 RFU/sec, the lipase hydrolytic activity (4-MU oleate), average slope; incubated with 5 uM TCEP + Model B was 66 RFU/sec and the lipase hydrolytic activity (4-MU oleate), average slope; incubated with 1.35% Savinase + Model B was 143 RFU/sec. For the same protein, the lipase hydrolytic activity (4-MU oleate), average slope; incubated with 2% NaSO2 was 28 RFU/sec and the lipase hydrolytic activity (4-MU oleate), average slope; incubated with 2% NaSO2 + Model B was 66 RFU/sec.
